Results as given in article PMC9599461, “Stereoselectivity in the Membrane Transport of Phenylethylamine Derivatives by Human Monoamine Transporters and Organic Cation Transporters 1, 2, and 3” (Biomolecules, 2022).
Several values for one entry are separate records, joined by “and”; a condition that tells them apart may be missing. Equal values may be shown once.

Assays:
Alpha-1 adrenoreceptor = conditions: cited from earlier work
Alpha-2 adrenoreceptor = system: Alpha-2 adrenoreceptor; parameters: method as in PMID 2833972; conditions: cited from earlier work
OCT2 A270S variant [1] = test: in vitro; conditions: human, Stereoselectivity OCT2_A270S, 100 μM racemic substance, two minutes; uptake ratio of enantiomers, given as for (R)
OCT3 = molecular target: T1, OCT3 (Homo sapiens, UniProt O75751); test: Stereoselective uptake into OCT3-overexpressing HEK293 cells; conditions: OCT3; ratio between enantiomers, given as for (R) or for 1;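 further: intracellular accumulation in HEK293 cells measured by chiral HPLC-MS/MS after a 2 min substrate exposure at 37 °C, uptake normalized to total protein (bicinchoninic acid assay)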
T1 sequence (O75751 1-556): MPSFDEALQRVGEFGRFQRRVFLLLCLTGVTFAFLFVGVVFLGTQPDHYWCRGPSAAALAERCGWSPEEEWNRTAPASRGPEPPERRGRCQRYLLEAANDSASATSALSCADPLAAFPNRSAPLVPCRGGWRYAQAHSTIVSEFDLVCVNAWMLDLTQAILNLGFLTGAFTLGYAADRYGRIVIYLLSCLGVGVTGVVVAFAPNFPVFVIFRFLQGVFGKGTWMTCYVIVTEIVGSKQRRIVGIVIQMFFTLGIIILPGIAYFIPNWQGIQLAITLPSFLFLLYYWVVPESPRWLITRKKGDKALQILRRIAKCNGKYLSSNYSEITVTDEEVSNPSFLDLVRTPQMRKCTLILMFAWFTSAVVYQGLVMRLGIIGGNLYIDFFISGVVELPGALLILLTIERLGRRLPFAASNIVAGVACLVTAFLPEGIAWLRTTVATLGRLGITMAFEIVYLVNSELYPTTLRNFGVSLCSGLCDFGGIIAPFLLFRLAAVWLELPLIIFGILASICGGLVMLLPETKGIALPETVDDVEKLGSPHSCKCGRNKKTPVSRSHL

OCT2 (wild-type) = molecular target: T2, OCT2 (wild-type) (Homo sapiens, UniProt O15244); test: Stereoselective uptake into OCT2 (wild-type)-overexpressing HEK293 cells; conditions: human, 100 μM racemic substance, two minutes, uptake ratio of enantiomers, given as for (R)
T2 sequence (O15244 1-555 S270A): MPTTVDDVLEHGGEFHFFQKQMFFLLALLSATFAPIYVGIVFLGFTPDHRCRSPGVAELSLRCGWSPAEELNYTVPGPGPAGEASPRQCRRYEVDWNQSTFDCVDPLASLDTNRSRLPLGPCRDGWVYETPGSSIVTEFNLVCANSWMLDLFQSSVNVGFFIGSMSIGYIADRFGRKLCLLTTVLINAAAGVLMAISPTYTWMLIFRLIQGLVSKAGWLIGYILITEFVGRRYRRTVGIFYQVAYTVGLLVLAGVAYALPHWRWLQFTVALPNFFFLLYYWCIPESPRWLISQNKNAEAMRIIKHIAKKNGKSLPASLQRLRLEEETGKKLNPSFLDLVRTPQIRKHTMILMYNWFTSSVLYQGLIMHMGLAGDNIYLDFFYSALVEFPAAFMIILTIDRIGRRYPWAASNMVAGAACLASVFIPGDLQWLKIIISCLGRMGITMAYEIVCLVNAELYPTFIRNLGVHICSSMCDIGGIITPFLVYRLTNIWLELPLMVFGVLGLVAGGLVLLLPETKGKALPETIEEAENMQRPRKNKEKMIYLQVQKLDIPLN

SERT = SERT (Homo sapiens, UniProt P31645); test: Stereoselective uptake into SERT-overexpressing HEK293 cells; conditions: SERT; ratio between enantiomers, given as for (R) or for 1;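 further: uptake into HEK293 cells stably expressing human SERT over 2 min, enantiomers measured in cell lysate by chiral HPLC-MS/MS, normalized to total protein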
OCT2 A270S variant [2] = test: Stereoselective uptake into OCT2 A270S variant-overexpressing HEK293 cells; conditions: human, HEK293 cells stably overexpressing human OCT2 A270S variant;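 further: uptake into HEK293 cells stably overexpressing human OCT2 variants, intracellular enantiomers quantified by chiral HPLC-MS/MS and normalized to total protein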
CNCC(O)c1ccc(O)c(OC)c1 = test: cells, lysate or membranes; conditions: other: HEK293 cells overexpressing human SERT; racemic substrate, two minutes; net uptake minus empty vector control; 37.0 °C
CNC[C@@H](O)c1ccc(O)cc1 = test: cells, lysate or membranes; conditions: other: HEK293 cells overexpressing human SERT; racemic substrate, two minutes; net uptake minus empty vector control; 37.0 °C
COc1cc(C(O)CN)ccc1O = test: cells, lysate or membranes; conditions: other: HEK293 cells overexpressing human SERT; racemic substrate, two minutes; net uptake minus empty vector control; 37.0 °C
NCC(O)c1cccc(O)c1 = test: cells, lysate or membranes; conditions: other: HEK293 cells overexpressing human SERT; racemic substrate, two minutes; net uptake minus empty vector control; 37.0 °C
NC[C@@H](O)c1ccc(O)cc1 = test: cells, lysate or membranes; conditions: other: HEK293 cells overexpressing human SERT; racemic substrate, two minutes; net uptake minus empty vector control; 37.0 °C
NC[C@H](O)c1ccc(O)cc1 = test: cells, lysate or membranes; conditions: other: HEK293 cells overexpressing human SERT; racemic substrate, two minutes; net uptake minus empty vector control; 37.0 °C
[3] = system: [H][C@](O)(CNC)c1ccc(O)cc1; test: cells, lysate or membranes; conditions: other: HEK293 cells overexpressing human SERT; racemic substrate, two minutes; net uptake minus empty vector control; 37.0 °C
[4] = substrate: CNCC(O)c1ccc(O)c(OC)c1; test: cells, lysate or membranes; conditions: racemic substrate, two minutes, net uptake minus empty vector control, 37.0 °C
[5] = substrate: CNC[C@@H](O)c1ccc(O)cc1; test: cells, lysate or membranes; conditions: racemic substrate, two minutes, net uptake minus empty vector control, 37.0 °C
[6] = substrate: CNC[C@@H](O)c1cccc(O)c1; test: cells, lysate or membranes; conditions: racemic substrate, two minutes, net uptake minus empty vector control, 37.0 °C
[7] = substrate: CNC[C@H](O)c1cccc(O)c1; test: cells, lysate or membranes; conditions: racemic substrate, two minutes, net uptake minus empty vector control, 37.0 °C
[8] = substrate: COc1cc(C(O)CN)ccc1O; test: cells, lysate or membranes; conditions: racemic substrate, two minutes, net uptake minus empty vector control, 37.0 °C
[9] = substrate: NCC(O)c1cccc(O)c1; test: cells, lysate or membranes; conditions: other: HEK293 cells overexpressing human OCT3; racemic substrate, two minutes; net uptake minus empty vector control; 37.0 °C
[10] = substrate: NC[C@@H](O)c1ccc(O)cc1; test: cells, lysate or membranes; conditions: racemic substrate, two minutes, net uptake minus empty vector control, 37.0 °C
[11] = substrate: NC[C@H](O)c1ccc(O)cc1; test: cells, lysate or membranes; conditions: racemic substrate, two minutes, net uptake minus empty vector control, 37.0 °C
[12] = substrate: [H][C@](O)(CNC)c1ccc(O)cc1; test: cells, lysate or membranes; conditions: racemic substrate, two minutes, net uptake minus empty vector control, 37.0 °C
[13] = other: HEK293 cells overexpressing human OCT3
[14] = other: HEK293 cells overexpressing human OCT1

NCC(O)c1cccc(O)c1 (stereo not shown) [Norphenylephrine]
Enantiomeric Activity Ratio (R/S) in Receptor Binding Alpha-1 (Alpha-1 adrenoreceptor): 8 | Enantiomeric Activity Ratio (R/S) in Receptor Binding Alpha-2 (Alpha-2 adrenoreceptor): 3 | selectivity ratio at 2 min, 100 μM (OCT2 A270S variant [1]): 1.46 | Stereoselectivity Vmax (OCT3): 3.9 fold | selectivity ratio at 2 min, 100 μM (OCT2 (wild-type); Stereoselectivity OCT2_WT): 1.54

NCC(O)c1ccc(O)cc1 (stereo not shown) [Octopamine]
Enantiomeric Activity Ratio (R/S) in Receptor Binding Alpha-1 (Alpha-1 adrenoreceptor): 5 | Enantiomeric Activity Ratio (R/S) in Receptor Binding Alpha-2 (Alpha-2 adrenoreceptor): 3 | Stereoselectivity Vmax (SERT): 2.4 fold | selectivity ratio at 2 min, 100 μM (OCT2 (wild-type); HEK293 cells stably overexpressing human wild-type OCT2, Stereoselectivity OCT2_WT): 1.74 | selectivity ratio at 2 min, 100 μM (OCT2 A270S variant [2]): 1.69

CNC[C@H](O)c1cccc(O)c1 [Phenylephrine]
Enantiomeric Activity Ratio (R/S) in Receptor Binding Alpha-1 (Alpha-1 adrenoreceptor): 420 | Enantiomeric Activity Ratio (R/S) in Receptor Binding Alpha-2 (Alpha-2 adrenoreceptor): 45 | selectivity ratio at 2 min, 100 μM (OCT2 A270S variant [1]): 1.16 | Stereoselectivity Vmax (OCT3): 3.3 fold | selectivity ratio at 2 min, 100 μM (OCT2 (wild-type); Stereoselectivity OCT2_WT): 1.3

SERT (Homo sapiens)
Km (CNCC(O)c1ccc(O)c(OC)c1): 151 µM and 165 µM | Vmax (CNCC(O)c1ccc(O)c(OC)c1): 87.4 pmol × mg Protein^−1 × min^−1 and 94.5 pmol × mg Protein^−1 × min^−1 | Km (CNC[C@@H](O)c1ccc(O)cc1): 804 µM | Vmax (CNC[C@@H](O)c1ccc(O)cc1): 491 pmol × mg Protein^−1 × min^−1 | Km (COc1cc(C(O)CN)ccc1O): 42.0 µM and 38.7 µM | Vmax (COc1cc(C(O)CN)ccc1O): 93.6 pmol × mg Protein^−1 × min^−1 and 157 pmol × mg Protein^−1 × min^−1 | Km (NCC(O)c1cccc(O)c1): 333 µM and 277 µM | Vmax (NCC(O)c1cccc(O)c1): 400 pmol × mg Protein^−1 × min^−1 and 508 pmol × mg Protein^−1 × min^−1 | Km (NC[C@@H](O)c1ccc(O)cc1): 42.9 µM | Vmax (NC[C@@H](O)c1ccc(O)cc1): 104 pmol × mg Protein^−1 × min^−1 | Km (NC[C@H](O)c1ccc(O)cc1): 59.6 µM | Vmax (NC[C@H](O)c1ccc(O)cc1): 247 pmol × mg Protein^−1 × min^−1 | Km [3]: 528 µM | Vmax [3]: 363 pmol × mg Protein^−1 × min^−1

B1: OCT3 (Homo sapiens) (protein)
chain: MPSFDEALQRVGEFGRFQRRVFLLLCLTGVTFAFLFVGVVFLGTQPDHYWCRGPSAAALAERCGWSPEEEWNRTAPASRGPEPPERRGRCQRYLLEAANDSASATSALSCADPLAAFPNRSAPLVPCRGGWRYAQAHSTIVSEFDLVCVNAWMLDLTQAILNLGFLTGAFTLGYAADRYGRIVIYLLSCLGVGVTGVVVAFAPNFPVFVIFRFLQGVFGKGTWMTCYVIVTEIVGSKQRRIVGIVIQMFFTLGIIILPGIAYFIPNWQGIQLAITLPSFLFLLYYWVVPESPRWLITRKKGDKALQILRRIAKCNGKYLSSNYSEITVTDEEVSNPSFLDLVRTPQMRKCTLILMFAWFTSAVVYQGLVMRLGIIGGNLYIDFFISGVVELPGALLILLTIERLGRRLPFAASNIVAGVACLVTAFLPEGIAWLRTTVATLGRLGITMAFEIVYLVNSELYPTTLRNFGVSLCSGLCDFGGIIAPFLLFRLAAVWLELPLIIFGILASICGGLVMLLPETKGIALPETVDDVEKLGSPHSCKCGRNKKTPVSRSHL
Km [4, 13]: 29.0 µM and 24.4 µM | Vmax [4, 13]: 752 pmol × mg Protein^−1 × min^−1 and 635 pmol × mg Protein^−1 × min^−1 | Km [5, 13]: 75.3 µM | Vmax [5, 13]: 2090 pmol × mg Protein^−1 × min^−1 | Km [6, 13]: 205 µM | Vmax [6, 13]: 866 pmol × mg Protein^−1 × min^−1 | Km [7, 13]: 244 µM | Vmax [7, 13]: 2885 pmol × mg Protein^−1 × min^−1 | Km [8, 13]: 75.9 µM and 62.4 µM | Vmax [8, 13]: 1473 pmol × mg Protein^−1 × min^−1 and 1352 pmol × mg Protein^−1 × min^−1 | Km [9]: 582 µM and 498 µM | Km [10, 13]: 20.1 µM | Vmax [10, 13]: 1072 pmol × mg Protein^−1 × min^−1 | Km [11, 13]: 25.1 µM | Vmax [11, 13]: 972 pmol × mg Protein^−1 × min^−1 | Km [12, 13]: 83.5 µM | Vmax [12, 13]: 2193 pmol × mg Protein^−1 × min^−1

B2: OCT1 (Homo sapiens) (protein)
chain: MPTVDDILEQVGESGWFQKQAFLILCLLSAAFAPICVGIVFLGFTPDHHCQSPGVAELSQRCGWSPAEELNYTVPGLGPAGEAFLGQCRRYEVDWNQSALSCVDPLASLATNRSHLPLGPCQDGWVYDTPGSSIVTEFNLVCADSWKLDLFQSCLNAGFLFGSLGVGYFADRFGRKLCLLGTVLVNAVSGVLMAFSPNYMSMLLFRLLQGLVSKGNWMAGYTLITEFVGSGSRRTVAIMYQMAFTVGLVALTGLAYALPHWRWLQLAVSLPTFLFLLYYWCVPESPRWLLSQKRNTEAIKIMDHIAQKNGKLPPADLKMLSLEEDVTEKLSPSFADLFRTPRLRKRTFILMYLWFTDSVLYQGLILHMGATSGNLYLDFLYSALVEIPGAFIALITIDRVGRIYPMAMSNLLAGAACLVMIFISPDLHWLNIIIMCVGRMGITIAIQMICLVNAELYPTFVRNLGVMVCSSLCDIGGIITPFIVFRLREVWQALPLILFAVLGLLAAGVTLLLPETKGVALPETMKDAENLGRKAKPKENTIYLKVQTSEPSGT
Km [4, 14]: 134 µM and 146 µM | Km [5, 14]: 111 µM | Vmax [5, 14]: 1348 pmol × mg Protein^−1 × min^−1 | Km [6, 14]: 178 µM | Vmax [6, 14]: 1578 pmol × mg Protein^−1 × min^−1 | Km [7, 14]: 175 µM | Vmax [7, 14]: 1710 pmol × mg Protein^−1 × min^−1 | Km [8, 14]: 806 µM and 1279 µM | Vmax [8, 14]: 2137 pmol × mg Protein^−1 × min^−1 and 3145 pmol × mg Protein^−1 × min^−1 | Km [10, 14]: 281 µM | Vmax [10, 14]: 1211 pmol × mg Protein^−1 × min^−1 | Km [11, 14]: 291 µM | Vmax [11, 14]: 1318 pmol × mg Protein^−1 × min^−1 | Km [12, 14]: 86.7 µM | Vmax [12, 14]: 1817 pmol × mg Protein^−1 × min^−1
